According to publication PMC5462952:

Target: HA-tagged C-terminal region of CaV1.3α (aa 1509–2203) (rat) (UniProt P27732)
Sequence of UniProt P27732 (P27732 1509-2203): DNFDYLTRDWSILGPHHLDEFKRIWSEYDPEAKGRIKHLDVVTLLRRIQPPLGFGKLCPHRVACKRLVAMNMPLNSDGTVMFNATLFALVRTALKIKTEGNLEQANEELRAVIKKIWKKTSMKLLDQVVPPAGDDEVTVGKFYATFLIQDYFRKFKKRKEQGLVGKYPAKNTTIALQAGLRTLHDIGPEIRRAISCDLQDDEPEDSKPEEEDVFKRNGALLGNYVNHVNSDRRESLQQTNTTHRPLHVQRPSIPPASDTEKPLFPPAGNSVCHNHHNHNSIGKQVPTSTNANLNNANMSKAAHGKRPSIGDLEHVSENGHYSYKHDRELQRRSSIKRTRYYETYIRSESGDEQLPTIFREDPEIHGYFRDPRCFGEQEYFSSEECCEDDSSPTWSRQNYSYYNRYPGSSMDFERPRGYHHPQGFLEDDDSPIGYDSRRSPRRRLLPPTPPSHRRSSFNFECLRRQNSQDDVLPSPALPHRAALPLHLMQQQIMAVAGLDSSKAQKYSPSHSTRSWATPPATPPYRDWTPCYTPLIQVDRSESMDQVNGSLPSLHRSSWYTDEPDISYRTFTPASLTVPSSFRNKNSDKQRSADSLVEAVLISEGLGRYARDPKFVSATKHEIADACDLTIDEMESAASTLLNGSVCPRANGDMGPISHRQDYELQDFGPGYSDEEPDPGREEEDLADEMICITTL

“full-length untagged RIM2α (from UniProt Q9EQZ7-1 1-1530) (natural protein)” showed a shift of the voltage-dependence of CaV1.3 channel activation in HEK293/SK3-1 cells co-expressing RIM2α of 3 mV.
